Measurements as given in patent US20240190989A1 (BEIGENE SWITZERLAND, published 2024).

Biological target: T1, human CD137 ECD-mIgG2a (human)
T1 construct: ECD 24-183 of huCD137 fused to mouse IgG2a Fc; also called huCD137-mIgG2a; huCD137
Assay: SPR, A-CEAxCD137 format
Method: Characterization of anti-huCD137 VH domain antibodies were made by SPR assays using BIAcore™ T-200 (GE Life Sciences). Briefly, anti-human IgG (Fc) antibody was immobilized on an activated CM5 biosensor chip (Cat.: BR100839, GE Life Sciences). Anti-huCD137 domain antibodies were flowed over the chip surface and captured by anti-human IgG (Fc) antibody. […] The equilibrium dissociation constant (KD) was calculated as the ratio koff/kₒₙ.
Affinity comparison on CD137 affinity matured variants was made by SPR assays using BIAcore™ T-200 (GE Life Sciences) and flow cytometry as described.

T1 sequence (chain, as listed by the source limits assumed): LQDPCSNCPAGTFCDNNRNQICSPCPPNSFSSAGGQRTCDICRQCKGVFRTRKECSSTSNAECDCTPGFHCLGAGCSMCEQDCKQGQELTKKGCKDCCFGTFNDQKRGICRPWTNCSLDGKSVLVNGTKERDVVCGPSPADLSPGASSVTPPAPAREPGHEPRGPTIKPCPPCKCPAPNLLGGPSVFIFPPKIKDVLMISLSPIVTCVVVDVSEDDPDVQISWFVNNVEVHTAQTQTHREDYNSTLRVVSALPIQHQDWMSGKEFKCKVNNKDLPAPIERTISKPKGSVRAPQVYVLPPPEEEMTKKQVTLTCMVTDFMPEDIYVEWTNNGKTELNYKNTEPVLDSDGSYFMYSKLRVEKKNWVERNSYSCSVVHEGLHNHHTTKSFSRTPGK

B1: Format A BGA-5385 (bispecific antibody, human IgG1, kappa)
heavy: QVQLVQSGAEVKKPGASVKVSCKASGYIFTSYYLHWVRQAPGQGLEWIGYINPQTGKTSYAQKFQGRVTMTRDTSTSTVYMELSSLRSEDTAVYYCAREYGNYNYPLDYWGQGTLVTVSSASTKGPSVFPLAPSSKSTSGGTAALGCLVKDYFPEPVTVSWNSGALTSGVHTFPAVLQSSGLYSLSSVVTVPSSSLGTQTYICNVNHKPSNTKVDKKVEPKSCDKTHTCPPCPAPPAAGPSVFLFPPKPKDTLMISRTPEVTCVVVDVSHEDPEVKFNWYVDGVEVHNAKTKPREEQYNSTYRVVSVLTVLHQDWLNGKEYKCKVSNKALAAPIEKTISKAKGQPREPQVYTLPPSREEMTKNQVSLTCLVKGFYPSDIAVEWESNGQPENNYKTTPPVLDSDGSFFLYSKLTVDKSRWQQGNVFSCSVMHEALHNHYTQKSLSLSPGKGGGGSEVQLLESGGGLVQPGGSLRLSCAASGFTLSAEDVGWVRQAPGKGLEWVSAILDHGGSTYYAESVKGRFTISRDNAKNTLYLQMSSLRAEDTAVYYCARVIYHAGGGVTFDTRGQGTQVTVSS
light: DIQMTQSPSSLSASVGDRVTITCRASENQYGYLAWYQQKPGKVPKLLIYNYKNLVEGVPSRFSGSGSGTDFTLTISSLQPEDVATYYCQHHLGTPYTFGQGTKVEIKRTVAAPSVFIFPPSDEQLKSGTASVVCLLNNFYPREAKVQWKVDNALQSGNSQESVTEQDSKDSTYSLSSTLTLSKADYEKHKVYACEVTHQGLSSPVTKSFNRGEC
A Kd of 154 nM was found for B1 in this work.

B2: Format A BGA-7916 (bispecific antibody, human IgG1, kappa)
heavy: QVQLVQSGAEVKKPGASVKVSCKASGYIFTSYYLHWVRQAPGQGLEWIGYINPQTGKTSYAQKFQGRVTMTRDTSTSTVYMELSSLRSEDTAVYYCAREYGNYNYPLDYWGQGTLVTVSSASTKGPSVFPLAPSSKSTSGGTAALGCLVKDYFPEPVTVSWNSGALTSGVHTFPAVLQSSGLYSLSSVVTVPSSSLGTQTYICNVNHKPSNTKVDKKVEPKSCDKTHTCPPCPAPPAAGPSVFLFPPKPKDTLMISRTPEVTCVVVDVSHEDPEVKFNWYVDGVEVHNAKTKPREEQYNSTYRVVSVLTVLHQDWLNGKEYKCKVSNKALAAPIEKTISKAKGQPREPQVYTLPPSREEMTKNQVSLTCLVKGFYPSDIAVEWESNGQPENNYKTTPPVLDSDGSFFLYSKLTVDKSRWQQGNVFSCSVMHEALHNHYTQKSLSLSPGKGGGGSEVQLLESGGGLVQPGGSLRLSCAASGFTVSAEDVGWVRQAPGKGLEWVSAILDSGGSTYYAESVKGRFTISRDNAKNTLYLQMSSLRAEDTAVYYCARVVYHAGGGVTYDYRGQGTQVTVSS
light: DIQMTQSPSSLSASVGDRVTITCRASENQYGYLAWYQQKPGKVPKLLIYNYKNLVEGVPSRFSGSGSGTDFTLTISSLQPEDVATYYCQHHLGTPYTFGQGTKVEIKRTVAAPSVFIFPPSDEQLKSGTASVVCLLNNFYPREAKVQWKVDNALQSGNSQESVTEQDSKDSTYSLSSTLTLSKADYEKHKVYACEVTHQGLSSPVTKSFNRGEC
A Kd of 203 nM was found for B2 in this work.

B3: Format A BGA-7746 (bispecific antibody, human IgG1, kappa)
heavy: QVQLVQSGAEVKKPGASVKVSCKASGYIFTSYYLHWVRQAPGQGLEWIGYINPQTGKTSYAQKFQGRVTMTRDTSTSTVYMELSSLRSEDTAVYYCAREYGNYNYPLDYWGQGTLVTVSSASTKGPSVFPLAPSSKSTSGGTAALGCLVKDYFPEPVTVSWNSGALTSGVHTFPAVLQSSGLYSLSSVVTVPSSSLGTQTYICNVNHKPSNTKVDKKVEPKSCDKTHTCPPCPAPPAAGPSVFLFPPKPKDTLMISRTPEVTCVVVDVSHEDPEVKFNWYVDGVEVHNAKTKPREEQYNSTYRVVSVLTVLHQDWLNGKEYKCKVSNKALAAPIEKTISKAKGQPREPQVYTLPPSREEMTKNQVSLTCLVKGFYPSDIAVEWESNGQPENNYKTTPPVLDSDGSFFLYSKLTVDKSRWQQGNVFSCSVMHEALHNHYTQKSLSLSPGKGGGGSEVQLLESGGGLVQPGGSLRLSCAASGFTVSAEDVGWVRQAPGKGLEWVSAILDFGGSTYYAESVKGRFTISRDNAKNTLYLQMSSLRAEDTAVYYCARVVYHAGGGVTFDTRGQGTQVTVSS
light: DIQMTQSPSSLSASVGDRVTITCRASENQYGYLAWYQQKPGKVPKLLIYNYKNLVEGVPSRFSGSGSGTDFTLTISSLQPEDVATYYCQHHLGTPYTFGQGTKVEIKRTVAAPSVFIFPPSDEQLKSGTASVVCLLNNFYPREAKVQWKVDNALQSGNSQESVTEQDSKDSTYSLSSTLTLSKADYEKHKVYACEVTHQGLSSPVTKSFNRGEC
A Kd of 245 nM was found for B3 in this work.

B4: Format A BGA-9442 (bispecific antibody, human IgG1, kappa)
heavy: QVQLVQSGAEVKKPGASVKVSCKASGYIFTSYYLHWVRQAPGQGLEWIGYINPQTGKTSYAQKFQGRVTMTRDTSTSTVYMELSSLRSEDTAVYYCAREYGNYNYPLDYWGQGTLVTVSSASTKGPSVFPLAPSSKSTSGGTAALGCLVKDYFPEPVTVSWNSGALTSGVHTFPAVLQSSGLYSLSSVVTVPSSSLGTQTYICNVNHKPSNTKVDKKVEPKSCDKTHTCPPCPAPPAAGPSVFLFPPKPKDTLMISRTPEVTCVVVDVSHEDPEVKFNWYVDGVEVHNAKTKPREEQYNSTYRVVSVLTVLHQDWLNGKEYKCKVSNKALAAPIEKTISKAKGQPREPQVYTLPPSREEMTKNQVSLTCLVKGFYPSDIAVEWESNGQPENNYKTTPPVLDSDGSFFLYSKLTVDKSRWQQGNVFSCSVMHEALHNHYTQKSLSLSPGKGGGGSEVQLLESGGGLVQPGGSLRLSCAASGFTISAEDVGWVRQAPGKGLEWVSAILDSGGSTYYAESVKGRFTISRDNAKNTLYLQMSSLRAEDTAVYYCARYVYHAGGGVTFDLRGQGTQVTVSS
light: DIQMTQSPSSLSASVGDRVTITCRASENQYGYLAWYQQKPGKVPKLLIYNYKNLVEGVPSRFSGSGSGTDFTLTISSLQPEDVATYYCQHHLGTPYTFGQGTKVEIKRTVAAPSVFIFPPSDEQLKSGTASVVCLLNNFYPREAKVQWKVDNALQSGNSQESVTEQDSKDSTYSLSSTLTLSKADYEKHKVYACEVTHQGLSSPVTKSFNRGEC
A Kd of 164 nM was found for B4 in this work.

B5: Format A BGA-8425 (bispecific antibody, human IgG1, kappa)
heavy: QVQLVQSGAEVKKPGASVKVSCKASGYIFTSYYLHWVRQAPGQGLEWIGYINPQTGKTSYAQKFQGRVTMTRDTSTSTVYMELSSLRSEDTAVYYCAREYGNYNYPLDYWGQGTLVTVSSASTKGPSVFPLAPSSKSTSGGTAALGCLVKDYFPEPVTVSWNSGALTSGVHTFPAVLQSSGLYSLSSVVTVPSSSLGTQTYICNVNHKPSNTKVDKKVEPKSCDKTHTCPPCPAPPAAGPSVFLFPPKPKDTLMISRTPEVTCVVVDVSHEDPEVKFNWYVDGVEVHNAKTKPREEQYNSTYRVVSVLTVLHQDWLNGKEYKCKVSNKALAAPIEKTISKAKGQPREPQVYTLPPSREEMTKNQVSLTCLVKGFYPSDIAVEWESNGQPENNYKTTPPVLDSDGSFFLYSKLTVDKSRWQQGNVFSCSVMHEALHNHYTQKSLSLSPGKGGGGSEVQLLESGGGLVQPGGSLRLSCAASGFTLSAEDVGWVRQAPGKGLEWVSAILDSGGSTYYAESVKGRFTISRDNAKNTLYLQMSSLRAEDTAVYYCARVVYHAGGGVTYDYRGQGTQVTVSS
light: DIQMTQSPSSLSASVGDRVTITCRASENQYGYLAWYQQKPGKVPKLLIYNYKNLVEGVPSRFSGSGSGTDFTLTISSLQPEDVATYYCQHHLGTPYTFGQGTKVEIKRTVAAPSVFIFPPSDEQLKSGTASVVCLLNNFYPREAKVQWKVDNALQSGNSQESVTEQDSKDSTYSLSSTLTLSKADYEKHKVYACEVTHQGLSSPVTKSFNRGEC
A Kd of 189 nM was found for B5 in this work.
